Experimental data from article PMC7395460, “Structural mechanism of helicase loading onto replication origin DNA by ORC-Cdc6” (Proceedings of the National Academy of Sciences of the …, 2020).

T1: Mcm4 (S. cerevisiae, UniProt P30665 1-933)
T1 construct: Mcm4 of S. cerevisiae; Stood in the assay as a subunit of the mutant Mcm2-7
T1 sequence: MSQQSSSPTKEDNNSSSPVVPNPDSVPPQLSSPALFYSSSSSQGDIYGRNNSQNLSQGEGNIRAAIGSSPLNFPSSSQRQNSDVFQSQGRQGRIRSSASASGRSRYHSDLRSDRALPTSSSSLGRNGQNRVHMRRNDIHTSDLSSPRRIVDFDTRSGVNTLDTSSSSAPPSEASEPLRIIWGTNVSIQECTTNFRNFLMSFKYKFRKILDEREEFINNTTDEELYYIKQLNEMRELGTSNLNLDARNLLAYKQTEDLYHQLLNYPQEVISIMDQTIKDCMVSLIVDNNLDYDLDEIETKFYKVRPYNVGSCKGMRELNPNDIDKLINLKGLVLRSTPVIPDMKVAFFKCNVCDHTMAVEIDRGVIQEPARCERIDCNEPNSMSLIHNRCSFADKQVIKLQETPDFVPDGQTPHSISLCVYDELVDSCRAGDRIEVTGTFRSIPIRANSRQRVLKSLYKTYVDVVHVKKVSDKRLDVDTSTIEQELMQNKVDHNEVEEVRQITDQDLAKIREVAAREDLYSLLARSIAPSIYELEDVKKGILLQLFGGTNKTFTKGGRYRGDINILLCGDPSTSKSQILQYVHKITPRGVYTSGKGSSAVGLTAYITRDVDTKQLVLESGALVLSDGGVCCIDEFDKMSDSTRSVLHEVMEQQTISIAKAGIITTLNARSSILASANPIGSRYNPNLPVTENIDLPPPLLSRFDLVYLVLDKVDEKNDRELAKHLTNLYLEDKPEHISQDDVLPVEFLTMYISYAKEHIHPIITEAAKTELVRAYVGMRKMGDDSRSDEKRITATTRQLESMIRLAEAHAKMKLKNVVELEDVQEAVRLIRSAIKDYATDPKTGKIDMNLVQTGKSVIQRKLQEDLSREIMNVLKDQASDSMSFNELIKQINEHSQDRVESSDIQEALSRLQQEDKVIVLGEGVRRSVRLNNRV

B1: Orc2 (natural protein, S. cerevisiae)
chain: MLNGEDFVEHNDILSSPAKSRNVTPKRVDPHGERQLRRIHSSKKNLLERISLVGNERKNTSPDPALKPKTPSKAPRKRGRPRKIQEELTDRIKKDEKDTISSKKKRKLDKDTSGNVNEESKTSNNKQVMEKTGIKEKREREKIQVATTTYEDNVTPQTDDNFVSNSPEPPEPATPSKKSLTTNHDFTSPLKQIIMNNLKEYKDSTSPGKLTLSRNFTPTPVPKNKKLYQTSETKSASSFLDTFEGYFDQRKIVRTNAKSRHTMSMAPDVTREEFSLVSNFFNENFQKRPRQKLFEIQKKMFPQYWFELTQGFSLLFYGVGSKRNFLEEFAIDYLSPKIAYSQLAYENELQQNKPVNSIPCLILNGYNPSCNYRDVFKEITDLLVPAELTRSETKYWGNHVILQIQKMIDFYKNQPLDIKLILVVHNLDGPSIRKNTFQTMLSFLSVIRQIAIVASTDHIYAPLLWDNMKAQNYNFVFHDISNFEPSTVESTFQDVMKMGKSDTSSGAEGAKYVLQSLTVNSKKMYKLLIETQMQNMGNLSANTGPKRGTQRTGVELKLFNHLCAADFIASNEIALRSMLREFIEHKMANITKNNSGMEIIWVPYTYAELEKLLKTVLNTL
notes: Orc2, subunit of the S. cerevisiae origin recognition complex; Stood in the assay as a subunit of ORC
B2: Mcm7 (natural protein, S. cerevisiae, UniProt P38132 1-845, looked up)
chain: MSAALPSIQLPVDYNNLFNEITDFLVTFKQDTLSSDATRNENEDENLDAENIEQHLLEKGPKYMAMLQKVANRELNSVIIDLDDILQYQNEKFLQGTQADDLVSAIQQNANHFTELFCRAIDNNMPLPTKEIDYKDDVLDVILNQRRLRNERMLSDRTNEIRSENLMDTTMDPPSSMNDALREVVEDETELFPPNLTRRYFLYFKPLSQNCARRYRKKAISSKPLSVRQIKGDFLGQLITVRGIITRVSDVKPAVEVIAYTCDQCGYEVFQEVNSRTFTPLSECTSEECSQNQTKGQLFMSTRASKFSAFQECKIQELSQQVPVGHIPRSLNIHVNGTLVRSLSPGDIVDVTGIFLPAPYTGFKALKAGLLTETYLEAQFVRQHKKKFASFSLTSDVEERVMELITSGDVYNRLAKSIAPEIYGNLDVKKALLLLLVGGVDKRVGDGMKIRGDINVCLMGDPGVAKSQLLKAICKISPRGVYTTGKGSSGVGLTAAVMKDPVTDEMILEGGALVLADNGICCIDEFDKMDESDRTAIHEVMEQQTISISKAGINTTLNARTSILAAANPLYGRYNPRLSPLDNINLPAALLSRFDILFLMLDIPSRDDDEKLAEHVTYVHMHNKQPDLDFTPVEPSKMREYIAYAKTKRPVMSEAVNDYVVQAYIRLRQDSKREMDSKFSFGQATPRTLLGIIRLSQALAKLRLADMVDIDDVEEALRLVRVSKESLYQETNKSKEDESPTTKIFTIIKKMLQETGKNTLSYENIVKTVRLRGFTMLQLSNCIQEYSYLNVWHLINEGNTLKFVDDGTMDTDQEDSLVSTPKLAPQTTASANVSAQDSDIDLQDA
notes: Mcm7 of S. cerevisiae; Stood in the assay as a subunit of the mutant Mcm2-7; in the semi-attached OCCM only its WHD is resolved
B3: Orc1 (natural protein, S. cerevisiae)
chain: MAKTLKDLQGWEIITTDEQGNIIDGGQKRLRRRGAKTEHYLKRSSDGIKLGRGDSVVMHNEAAGTYSVYMIQELRLNTLNNVVELWALTYLRWFEVNPLAHYRQFNPDANILNRPLNYYNKLFSETANKNELYLTAELAELQLFNFIRVANVMDGSKWEVLKGNVDPERDFTVRYICEPTGEKFVDINIEDVKAYIKKVEPREAQEYLKDLTLPSKKKEIKRGPQKKDKATQTAQISDAETRATDITDNEDGNEDESSDYESPSDIDVSEDMDSGEISADELEEEEDEEEDEDEEEKEARHTNSPRKRGRKIKLGKDDIDASVQPPPKKRGRKPKDPSKPRQMLLISSCRANNTPVIRKFTKKNVARAKKKYTPFSKRFKSIAAIPDLTSLPEFYGNSSELMASRFENKLKTTQKHQIVETIFSKVKKQLNSSYVKEEILKSANFQDYLPARENEFASIYLSAYSAIESDSATTIYVAGTPGVGKTLTVREVVKELLSSSAQREIPDFLYVEINGLKMVKPTDCYETLWNKVSGERLTWAASMESLEFYFKRVPKNKKKTIVVLLDELDAMVTKSQDIMYNFFNWTTYENAKLIVIAVANTMDLPERQLGNKITSRIGFTRIMFTGYTHEELKNIIDLRLKGLNDSFFYVDTKTGNAILIDAAGNDTTVKQTLPEDVRKVRLRMSADAIEIASRKVASVSGDARRALKVCKRAAEIAEKHYMAKHGYGYDGKTVIEDENEEQIYDDEDKDLIESNKAKDDNDDDDDNDGVQTVHITHVMKALNETLNSHVITFMTRLSFTAKLFIYALLNLMKKNGSQEQELGDIVDEIKLLIEVNGSNKFVMEIAKTLFQQGSDNISEQLRIISWDFVLNQLLDAGILFKQTMKNDRICCVKLNISVEEAKRAMNEDETLRNL
notes: Orc1, subunit of the S. cerevisiae origin recognition complex; Stood in the assay as a subunit of ORC

Tests used:
Test in all cases: cryo-EM structure; pre-insertion OCCM, 8.1 Å; same loading reaction (purified ORC, Cdc6, Cdt1, mutant Mcm2-7, ARS1 DNA, ATPγS); models docked as rigid bodies
Settings in all cases: both partners purified
[1] = target: T2, Mcm3 (S. cerevisiae, UniProt P24279 1-971)
T2 construct: Mcm3 of S. cerevisiae; Stood in the assay as a subunit of the mutant Mcm2-7; in the semi-attached OCCM only its WHD is resolved
T2 sequence (P24279 whole entry): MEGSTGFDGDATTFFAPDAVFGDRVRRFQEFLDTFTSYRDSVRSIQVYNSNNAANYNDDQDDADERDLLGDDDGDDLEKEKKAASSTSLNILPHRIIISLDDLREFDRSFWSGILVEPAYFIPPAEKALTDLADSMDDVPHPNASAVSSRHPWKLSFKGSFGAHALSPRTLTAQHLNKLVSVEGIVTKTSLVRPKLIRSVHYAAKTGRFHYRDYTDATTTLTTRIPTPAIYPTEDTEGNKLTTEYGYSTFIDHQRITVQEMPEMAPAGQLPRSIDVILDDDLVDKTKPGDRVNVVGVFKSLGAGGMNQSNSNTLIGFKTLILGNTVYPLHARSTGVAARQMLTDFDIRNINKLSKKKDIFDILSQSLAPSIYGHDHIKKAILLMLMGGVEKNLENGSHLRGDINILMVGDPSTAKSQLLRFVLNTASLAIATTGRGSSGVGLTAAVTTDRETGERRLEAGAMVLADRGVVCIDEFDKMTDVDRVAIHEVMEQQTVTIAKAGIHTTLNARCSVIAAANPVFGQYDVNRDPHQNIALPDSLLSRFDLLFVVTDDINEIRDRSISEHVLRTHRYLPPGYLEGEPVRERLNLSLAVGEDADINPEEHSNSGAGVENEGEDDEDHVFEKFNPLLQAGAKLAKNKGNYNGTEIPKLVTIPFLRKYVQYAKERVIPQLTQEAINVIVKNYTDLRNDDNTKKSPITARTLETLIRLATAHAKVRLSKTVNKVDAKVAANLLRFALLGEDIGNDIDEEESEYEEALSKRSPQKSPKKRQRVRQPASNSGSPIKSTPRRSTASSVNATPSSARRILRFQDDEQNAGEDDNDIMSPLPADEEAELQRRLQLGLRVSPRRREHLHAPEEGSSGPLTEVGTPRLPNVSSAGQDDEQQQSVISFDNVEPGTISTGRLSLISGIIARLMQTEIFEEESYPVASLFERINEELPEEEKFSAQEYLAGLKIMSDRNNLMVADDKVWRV

[2] = target: B3
[3] = target: T1, Mcm4

Binder: B1
- binding result [1]: binds

Binder: B2
- binding result [2]: binds

Binder: B3
- binding result [3]: binds
